T1: ostreolysin A6 (P. ostreatus) (UniProt P83467)
T1 sequence: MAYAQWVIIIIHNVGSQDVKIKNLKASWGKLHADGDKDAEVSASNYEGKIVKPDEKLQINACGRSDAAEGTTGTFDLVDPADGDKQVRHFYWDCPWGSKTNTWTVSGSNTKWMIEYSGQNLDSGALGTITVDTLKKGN

B1: pleurotolysin B (Δ48PlyB) (domain or fragment)
chain: SQAGDTLNDVIQDPTRRNKLINDNNLLKGIIMGRDGPVPSSRELIVRPDTLRAIINNRATIETTTMEAEFTETLMESNYNSASVKVSAPFITANSEYSESSSFKNTETEKSMYTSSRYLFPQGRIDFTTPDSGFDDVIKLSPQFTSGVQAALAKATGTEKREALQNLFQEYGHVFRTKVHIGGVLSAHTMETFSRSENETEVKQDVKAGLEGAVKGWGGGATAGHGNTQGTITTSQNRKLNVKYIVNGGDYTKIQNTEEWVASTNQSEHWRVIEVTEVTAVADLLPQPIRGQVKDLLKPLLGKWVDVEKVPGLESLPVSVYRPKGAIPAGWFWLGDTADASKALLVKPTLPARSGRNPALTSLHQGSGMTEQPFVDLPQYQYLSTYFGSFAHDTPPGSTLRGLRPDHVLPGRYEMHGDTISTAVYVTRPVDVPFPEDECFDLKSLVRVKLPGSGNPPKPRSALKKSMVLFDSGEK

Assays:
[1] = target: nudolysin A (L. nuda)
[2] = target: heterolysin A (H. irregulare TC 32-1)
[3] = target: T1, ostreolysin A6 (P. ostreatus)

Row | Molecule | time of 100% hemolysis of bovine red blood cells, pH 6.0; NudA 1, 0.1 and 0.01 µM, NudA:NudB 10:1 (0.7 to 48.8 min) [1] [min] | time of 100% hemolysis of bovine red blood cells, pH 7.0; NudA 1 and 0.1 µM, NudA:NudB 10:1 (0.7 to 11.1 min); at 0.01 µM 100% hemolysis did not occur [1] [min] | time of 100% hemolysis of bovine red blood cells, pH 8.0; NudA 1 µM, NudA:NudB 10:1; at 0.1 and 0.01 µM 100% hemolysis did not occur [1] [min] | time of 100% hemolysis of bovine red blood cells, pH 6.0; HetA 1, 0.1 and 0.01 µM, HetA:PlyB 10:1 (0.7 to 9.8 min) [2] [min] | time of 100% hemolysis of bovine red blood cells, pH 7.0; HetA 1 and 0.1 µM, HetA:PlyB 10:1 (1.3 to 8.2 min); at 0.01 µM 100% hemolysis did not occur [2] [min] | time of 100% hemolysis of bovine red blood cells, pH 8.0; HetA 1 and 0.1 µM, HetA:PlyB 10:1 (0.7 to 5.3 min); at 0.01 µM 100% hemolysis did not occur [2] [min] | time of 100% hemolysis of bovine red blood cells, pH 6.0; OlyA6 1, 0.1 and 0.01 µM, OlyA6:PlyB 10:1 (0.7 to 2.7 min) [3] [min] | time of 100% hemolysis of bovine red blood cells, pH 7.0; OlyA6 1, 0.1 and 0.01 µM, OlyA6:PlyB 10:1 (0.7 to 20.6 min) [3] [min] | time of 100% hemolysis of bovine red blood cells, pH 8.0; OlyA6 1, 0.1 and 0.01 µM, OlyA6:PlyB 10:1 (0.7 to 26.4 min) [3] [min]
1 | nudolysin B (Δ30NudB) (domain or fragment) | 48.8 | 11.1 | 2 | – | – | – | – | – | –
2 | B1 | – | – | – | 9.8 | 8.2 | 5.3 | 2.7 | 20.6 | 26.4

From paper PMC10975569
